Test [1] deals with T1, human TNFR2 overexpressed on CHO-S cells (CHOS-hTNFR2) (human, UniProt P20333 23-461).
T1 construct: also called hTNFR2 CHO-S; human TNFR2 molecule overexpressed on CHO-S cells
T1 sequence: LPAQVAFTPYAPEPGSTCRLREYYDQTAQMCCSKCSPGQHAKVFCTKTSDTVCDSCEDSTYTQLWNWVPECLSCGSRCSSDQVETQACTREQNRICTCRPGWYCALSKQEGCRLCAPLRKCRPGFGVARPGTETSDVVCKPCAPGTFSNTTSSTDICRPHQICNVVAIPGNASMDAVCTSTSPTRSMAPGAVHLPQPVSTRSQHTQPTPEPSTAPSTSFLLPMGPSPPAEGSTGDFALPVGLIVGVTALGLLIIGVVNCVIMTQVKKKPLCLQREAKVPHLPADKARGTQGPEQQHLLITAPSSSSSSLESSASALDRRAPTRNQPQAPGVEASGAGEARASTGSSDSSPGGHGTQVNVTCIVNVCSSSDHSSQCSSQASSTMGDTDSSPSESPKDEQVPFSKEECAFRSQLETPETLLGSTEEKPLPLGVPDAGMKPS
Kind of test: flow cytometry on CHO-S cells overexpressing human TNFR2 (chimeric antibody 69B1 beside the humanized antibodies), MFI-FL2A; unit taken from the axis Conc log(nM). On the procedure: (§1) In the study, the binding of the antibodies, after being diluted in a gradient, to a stable CHO-S strain line overexpressing human TNFR2 on the surface was assayed by using a flow cytometer.
(§2) CHOS-hTNFR2 cells were counted and diluted to 2×10⁶ cells/mL, and added to a U-bottom 96-well plate at 100 μL/well. The mixture was centrifuged at 300 g for 5 min, and the cell medium was removed. Samples (the humanized antibodies hz3C4.7, hz69B1.5, hz69B1.6, hz69B1.11 and hz69B1.20, the chimeric antibody 69B1, and the positive control antibody OPI) (the antibodies were subjected to a three-fold dilution in PBS from the maximum antibody concentration of 300 nM) were added to the U-plate, and the cells were resuspended at 100 μL/well and left to stand on ice for 30 min. The suspension was centrifuged at 400 g for 5 min, and the supernatant was removed. The cells were washed twice with PBS. The mixture was centrifuged at 300 g for 5 min, and PBS was removed. 100 μL of anti-human Fc PE-labeled secondary antibody (SoutherBiotech; 2040-09) (diluted at a 1:100 ratio in PBS) was added to each well and incubated on ice for 30 min in the dark. The mixture was centrifuged at 400 g for 5 min, and the supernatant was removed. The cells were washed 3 times with PBS. The cells were resuspended in 200 μL of 1×PBS and assayed by FACS.

In test [2] the target is T1, human TNFR2 overexpressed on CHO-S …. Kind of test: flow cytometry on CHO-S cells overexpressing human TNFR2 (positive control beside the hybridoma antibodies), MFI. The procedure: In the study, the binding of the hybridoma antibodies (3C4, 69B1, and 72G8) of the present invention, after being diluted in a gradient, to a stable CHO-S cell strain overexpressing human TNFR2 on the surface was assayed by using a flow cytometer.
CHOS-hTNFR2 cells or CHOS-cTNFR2 cells were counted and diluted to 2×10⁶ cells/mL, and added to a U-bottom 96-well plate at 100 μL/well. The mixture was centrifuged at 300 g for 5 min, and the cell medium was removed. The dilutions of the samples (the hybridoma antibodies 3C4, 69B1, and 72G8 and the positive control antibody OPI) (the antibodies were subjected to a two-fold serial dilution in PBS from the maximum antibody concentration of 300 nM) were added to the U-plate, and the cells were resuspended at 100 μL/well and left to stand on ice for 30 min. The suspension was centrifuged at 400 g for 5 min, and the supernatant was removed. The cells were washed twice with PBS. The mixture was centrifuged at 300 g for 5 min, and PBS was removed. […] The mixture was centrifuged at 400 g for 5 min, and the supernatant was removed. The cells were washed 3 times with PBS. The cells were resuspended in 200 μL of 1×PBS and assayed by FACS.

The target is the same in test [3]. Kind of test: flow cytometry on CHO-S cells overexpressing human TNFR2 (positive control), MFI-FL2A; unit taken from the axis Conc log(nM). On the procedure: as §1, §2
Test [4] has as its target T2, hTNFR2 protein (coated on the microplate in the blocking ELISA) (human, UniProt P20333 23-257).
T2 construct: The construct coated in the ELISA is not described (it may or may not be the immunogen, Sino biological 10417-H03H)
T2 sequence (looked up): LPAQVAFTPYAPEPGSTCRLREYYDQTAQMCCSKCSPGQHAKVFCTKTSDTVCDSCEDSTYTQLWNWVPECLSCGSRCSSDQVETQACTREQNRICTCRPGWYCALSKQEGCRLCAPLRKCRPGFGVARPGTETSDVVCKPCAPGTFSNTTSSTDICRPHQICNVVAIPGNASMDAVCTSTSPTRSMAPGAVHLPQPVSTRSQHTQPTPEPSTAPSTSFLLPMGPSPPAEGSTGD
Kind of test: blocking ELISA: hTNFR2 coated on the plate, binding of biotinylated TNFα blocked by the antibody, Avidin-HRP. On the procedure: The ability of the hybridoma antibodies 3C4, 69B1, and 72G8 and the control antibody OPI to block the binding of human TNFα to hTNFR2 was assayed by ELISA.
The hTNFR2 protein was resuspended and dissolved to a concentration of 2 μg/mL with PBS, and a microplate was coated with the protein and incubated overnight. The plate was blocked with 5% BSA for 1 h, and a biotinylated antigen (Recombinant Biotinylated TNFα protein (ACRO)) was diluted to 3 μg/mL and added to the plate at 20 μL/well. The antibodies prepared as described above (3C4, 69B1, and 72G8) were each diluted in a gradient starting from the maximum concentration of 300 nM for a total of 8 or 12 dilution gradients. The diluted antibodies were added at 200 μL/well and incubated in PBS on ice for 30 min. The antigen-antibody mixture was incubated in a microplate for 90 min and washed three times with PBS, and the supernatant was discarded. 100 μL of Avidin-HRP (Invitrogen) diluted at a 1:5000 ratio was added to each well, incubated at room temperature for 30 min, and washed six times with PBS. A TMB chromogenic solution (solarbio) was added to the plate at 100 μL/well for color development for 1 min, and the reaction was stopped by adding a stop buffer (solarbio) at 100 μL/well. The plate was read on a microplate reader at OD₄₅₀ and OD₆₂₀.

B1: chimeric antibody 69B1 (antibody, human IgG1, kappa, V domains shown)
VH: QIQLVQSGPELKKPGETVKISCKASGYTFTDYSMNWVKQAPGKGLKWMGWLNTETGEPIYADDFKGRFVFSLETSASTAYLEINNLNDEDTATYFCAREAIYYGTSYVLDYWGQGTSVTVSS
VL: DIVLTQSPASLAVSLGQRATISCRASESVEYYGTNFMQWYQQKPGQPPKLLIYSASNVESGVPARFSGSGSGTDFSLNIHPVEEDDIAVYFCQQSRKDPSTFGEGTNLEIKR
Turning to B1, the EC50 in test [1] worked out at 0.489 nM.

B2: positive control antibody OPI (humanized antibody SBT-002e in WO 2017083525) (antibody, V domains shown)
VH: QVTLKESGPALVKPTQTLTLTCTFSGFSLSTSGMGVGWIRQPPGKALEWLAHIWWDDDKFYNPSLKSRLTISKDTSKNQVVLTMTNMDPVDTATYYCARLTGTRYFDYWGQGTTVTVSS
VL: DVQMTQSPSSLSASVGDRVTITCKASQDINKFIAWYQQKPGKAPKLLIHYTSTLQPGIPSRFSGSGSGRDYTFTISSLQPEDIATYYCLQYGNLWTFGGGTKVEIK
notes: also called Benchmark OPI
Take B2: the “EC50 (read off the curve)” value in test [2] was roughly 2 nM. Also, the response in test [3] was half-maximal at 0.486 nM (EC50). The “IC50 (read off the curve)” value in test [4] was roughly 6 nM.

These data come from patent US20240026019A1 (Innovent, published 2024).
